Patent US20160319041

B1: clostripain (protein)
chain: NKNQKVTIMYYCDADNNLEGSLLNDIEEMKTGYKDSPNLNLIALVDRSPRYSSDEKVLGEDFSDTRLYKIEHNKANRLDGKNEFPEISTTSKYEANMGDPEVLKKFIDYCKSNYEADKYVLIMANHGGGAREKSNPRLNRAICWDDSNLDKNGEADCLYMGEISDHLTEKQSVDLLAFDACLMGTAEVAYQYRPGNGGFSADTLVASSPVVWGPGFKYDKIFDRIKAGGGTNNEDDLTLGGKEQNFDPATITNEQLGALFVEEQRDSTHANGRYDQHLSFYDLKKAESVKRAIDNLAVNLSNENKKSEIEKLRGSGIHTDLMHYFDEYSEGEWVEYPYFDVYDLCEKINKSENFSSKTKDLASNAMNKLNEMIVYSFGDPSNNFKEGKNGLSIFLPNGDKKYSTYYTSTKIPHWTMQSWYNSIDTVKYGLNPYGKLSWCKDGQDPEINKVGNWFELLDSWFDKTNDVTGGVNHYQW

What was measured:
[1] = system: T1, rNFH-SA (engineered protein with residues 426-1066 of the rat NF-H sidearm domain, N-terminal tetra-Cys tag, C-terminal poly-His-Asn tag)
T1 sequence: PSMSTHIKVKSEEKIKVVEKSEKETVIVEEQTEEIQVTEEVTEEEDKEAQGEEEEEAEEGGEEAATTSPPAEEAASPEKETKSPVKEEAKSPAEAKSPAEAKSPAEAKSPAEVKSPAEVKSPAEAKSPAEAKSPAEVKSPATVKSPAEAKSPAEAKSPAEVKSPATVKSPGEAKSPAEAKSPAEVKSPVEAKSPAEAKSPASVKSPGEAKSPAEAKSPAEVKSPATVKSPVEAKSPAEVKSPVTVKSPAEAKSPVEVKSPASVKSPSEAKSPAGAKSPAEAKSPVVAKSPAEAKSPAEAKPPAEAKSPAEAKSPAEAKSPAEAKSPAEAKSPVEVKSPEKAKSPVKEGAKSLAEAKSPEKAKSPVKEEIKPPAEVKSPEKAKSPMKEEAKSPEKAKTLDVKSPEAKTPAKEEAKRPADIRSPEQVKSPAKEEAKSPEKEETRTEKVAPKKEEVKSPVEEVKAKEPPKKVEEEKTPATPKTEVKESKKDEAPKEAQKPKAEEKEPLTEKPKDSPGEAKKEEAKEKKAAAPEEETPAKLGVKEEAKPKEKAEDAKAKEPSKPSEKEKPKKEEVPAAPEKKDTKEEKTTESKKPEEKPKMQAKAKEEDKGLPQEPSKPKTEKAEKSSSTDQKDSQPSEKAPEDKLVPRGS

[2] = target: T2, rNFH-SA (engineered protein with residues 426-1066 of the rat NF-H sidearm domain, N-terminal tetra-Cys tag, C-terminal poly-His-Asn tag)
T2 chain: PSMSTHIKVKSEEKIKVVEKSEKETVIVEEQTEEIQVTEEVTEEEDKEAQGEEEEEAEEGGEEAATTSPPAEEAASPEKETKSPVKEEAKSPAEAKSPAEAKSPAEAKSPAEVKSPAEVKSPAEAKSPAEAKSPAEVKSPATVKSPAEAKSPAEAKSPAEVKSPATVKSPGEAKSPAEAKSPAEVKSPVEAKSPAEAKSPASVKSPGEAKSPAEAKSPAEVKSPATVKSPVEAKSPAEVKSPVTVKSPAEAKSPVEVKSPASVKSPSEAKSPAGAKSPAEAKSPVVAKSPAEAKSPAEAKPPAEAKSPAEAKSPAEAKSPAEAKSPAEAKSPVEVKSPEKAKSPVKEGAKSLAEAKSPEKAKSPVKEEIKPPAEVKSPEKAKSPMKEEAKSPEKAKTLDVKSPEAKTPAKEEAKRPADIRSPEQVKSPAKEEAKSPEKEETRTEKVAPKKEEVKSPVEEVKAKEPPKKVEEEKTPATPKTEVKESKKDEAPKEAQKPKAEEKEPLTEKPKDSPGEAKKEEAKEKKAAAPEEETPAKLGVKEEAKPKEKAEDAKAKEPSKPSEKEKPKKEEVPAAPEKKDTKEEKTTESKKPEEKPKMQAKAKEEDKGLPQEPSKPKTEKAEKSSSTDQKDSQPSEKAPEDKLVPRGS

Molecule	loss of HN-tag immunofluorescence; brush height by AFM [1]	loss of HN-tag immunofluorescence [2]	reduction of brush height by AFM [2]
thrombin	addition of thrombin produced a loss of fluorescence (indicating successful enzymatic cleavage) without producing a significant change in brush height by AFM		
B1		addition of clostripain produced the same loss of fluorescence	reducing brush height by 20%
